How the values were obtained:
[1] = target: T1, VEGF165 (vascular endothelial growth factor 165) (Homo sapiens, UniProt P15692-4 P15692-4:27-191); assay: SPR; VEGF immobilized on CM5; TBS with 5 mM KCl, pH 7.4, 20 C; settings: tags: R&D Systems, expressed in Sf21 insect cells, chain copies: 2 (inferred, homodimer)
Procedure: (§1) The capacity of each oligonucleotide to bind to VEGF was evaluated using Biacore T200 (GE Healthcare Japan, Japan) by measuring SPR on a CM5 sensor chip. VEGF was dissolved in 10 mM acetate buffer (pH 6.0), and VEGF (about 1000 RU) was covalently bound to the CM5 sensor chip using an amine coupling kit. A non-labeled oligonucleotide (1 µM) was dissolved in Tris-buffered saline (TBS: 10 mM Tris-HCl, 100 mM NaCl, 5 mM KCl; pH 7.4), and the resulting solution was heated at 95° C. for 5 minutes, followed by allowing the solution to cool slowly. Under these conditions, each oligonucleotide is folded to form its specific secondary structure. Various concentrations of the oligonucleotide diluted with TBS was injected at a flow rate of 20 µl/minute at 20° C. onto the CM5 chip on which VEGF was immobilized. Binding between the immobilized VEGF and the oligonucleotide was monitored. By injecting NaCl (1 M), the CM5 chip was regenerated. Using Biacore evaluation software, the association rate and the dissociation rate were approximated to calculate the K_d value.

[2] = target: T1, VEGF165 (vascular endothelial growth …); assay: SPR; no binding capacity; TBS, 20 C; settings: tags: R&D Systems, expressed in Sf21 insect cells; chain copies: 2 (inferred, homodimer); G4 predicted
Procedure: as §1

[3] = target: T1, VEGF165 (vascular endothelial growth …); assay: SPR; VEGF immobilized on CM5; TBS (10 mM Tris-HCl, 100 mM NaCl, 5 mM KCl, pH 7.4), 20 C; settings: tags: R&D Systems, expressed in Sf21 insect cells; chain copies: 2 (inferred, homodimer)

T1 sequence (P15692 other isoform, or with tags, fused parts or gaps): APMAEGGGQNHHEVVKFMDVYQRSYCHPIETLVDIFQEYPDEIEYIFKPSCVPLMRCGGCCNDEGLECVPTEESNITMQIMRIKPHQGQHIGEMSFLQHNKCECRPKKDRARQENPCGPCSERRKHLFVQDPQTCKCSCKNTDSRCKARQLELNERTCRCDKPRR

Binder | binding result [2] | further results
TGTGGGGATGGATGGGCCGGGCTGC (ssDNA) [3R08 (3R#08)] | – | Kd ([1]; G4 predicted): 1.5 nM
TGTGGGGGTGGTTGGGCGGGGCTGC (ssDNA) [3R09 (3R#09)] | – | Kd ([1]; G4 predicted): 2.4 nM
TGTGGGGCTGGGAGGTCGGGCCTGC (ssDNA) [3R#10] | no binding | –
TGTGGGGGAGGACGGGCGGGGATGC (ssDNA) [3R#01] | – | Kd ([1]; G4 predicted): 8.8 nM
TGTGGGGGGGGTGGGGGTGGACCGC (ssDNA) [3R#06] | no binding | –
TGTGGGGGTGGACTGGGTGGGTACC (ssDNA) [3R02 (3R#02)] | – | Kd [1]: 0.3 nM
TGTGGGGGTGCGCGGGCCGGGCAGG (ssDNA) [2R#11] | no binding | –
TGTGGGGGTGGACGGGCCGGGTAGA (ssDNA) [VEap121] | – | Kd ([1]; G4): 4.7 nM
3R02 bivalent (ssDNA) DNA: TGTGGGGGTGGACTGGGTGGGTACCTTTTTTTTTTTGTGGGGGTGGACTGGGTGGGTACC | – | Kd [3]: 0.03 nM
TGTGGGGTTGGACGGGCCGTGTAGA (ssDNA) [2R#10] | no binding | –
TGTGCGGGTGGCCGGGGTGGCCTGC (ssDNA) [3R#07] | no binding | –
TGTGGGGGTGGACGGGCCGAGTACG (ssDNA) [3R03 (3R#03)] | – | Kd ([1]; G4 predicted): 1.7 nM
TGTGGGGTTGGACGGACCGGGTAGG (ssDNA) [2R#08] | no binding | –
TGTGCGGGGGGTGGGGGTGGTTCCC (ssDNA) [3R#04] | no binding | –

Reference: patent US9683238, “Vascular endothelial growth factor-binding aptamers” (National University Corporation Tokyo University of …)
